Experimental findings from patent US20220306762A1 are described below.

For experiment [1], the target named is His-tagged human CD38 (ACRO Biosystems CD8-H5224) (human) (UniProt P28907). In words: SPR (second run), His-tagged CD38.
The target of experiment [2] is His-tagged human CD38 (ACRO Biosystems cat #CD8-H5224) (human) (UniProt P28907). In words: SPR (Carterra LSA), antibody captured by anti-human Fc, His-tagged CD38 injected.
Experiment [3] shares this target. Kind of experiment: SPR (Carterra LSA), His-CD38 analyte.
Experiment [4] concerns the target CD38 on Daudi target cells (UniProt P28907). Kind of experiment: cell-based or functional assay.

For orientation: Kd means a measure of binding affinity in units of concentration. Take Isa Benchmark (antibody): in experiment [1], the Kd stood at 5.8 nM. Moreover, the Kd in experiment [2] amounted to 5.8 nM. In experiment [3], this substance showed a dissociation constant (Kd) of 2.69 nM. Also, in experiment [4], the ADCC EC50 came to 12.3 ng/mL, the Max RLU worked out at 3.16e+06 RLU and the PBMC ADCC EC50 came out at 0.0406 ng/mL.
Consider Dara Benchmark (antibody), for which, in experiment [1], the Kd worked out at 37.1 nM.
In experiment [4], Daratumumab (benchmark) (antibody) showed an ADCC EC50 of 68.2 ng/mL, a Lowest Remaining Target % of 57%, a Max RLU of 2.47e+06 RLU and a PBMC ADCC EC50 of 0.0983 ng/mL.
